Laboratory results published in the supplement of paper PMC12042874.
± gives the uncertainty stated by the source.

Test: amyloid nucleation score (Sup35N fusion, yeast selection) (log enrichment); library NNK2; higher = more nucleation; inactive = no reads after selection
Procedure, shortened: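 Psi-negative yeast expressed Sup35N fused to peptides of 20 random codons. They were induced 24 hours with 100 μM copper sulfate, grown 7 days at 30°C without adenine and uracil, and their plasmid inserts from input and output were Illumina-sequenced. The nucleation score is the DiMSum log enrichment of output over input reads, centred on the mode score of non-aggregating sequences. Sequences with under 100 input reads were excluded.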

Q: For LLFPQANMKDRSSPGVDWAQ, which amyloid nucleation score is on record?
A: 2.72 ± 0.068

Q: For FLSSYVFLCWCSLVSWGGTW, which amyloid nucleation score is on record?
A: 1.03 ± 0.66

Q: Which amyloid nucleation score does the source give for GVDLGIRRAFT here?
A: 0.578 ± 0.62

Q: With RVLMHHYTLANLVSLVTNFF as the substance, how does the amyloid nucleation score read?
A: 5.867 ± 0.043

Q: For MWMEVTRPPTGHFRIRGGQA, which amyloid nucleation score is on record?
A: inactive

Q: Which amyloid nucleation score does the source give for DAITCGVHFAKDLNWVYIEV here?
A: inactive

Q: Which amyloid nucleation score does the source give for NICELPITHKVGSWV here?
A: 0.518 ± 0.38

Q: With CPLNLPTLGRLATEKRAWG as the substance, how does the amyloid nucleation score read?
A: -0.177 ± 0.79

Q: With NRKTIIVEPTNACRS as the substance, how does the amyloid nucleation score read?
A: 0.775 ± 0.29

Q: For VGFSNGLDFDAVFNMKCQQW, which amyloid nucleation score is on record?
A: -0.965 ± 0.41

Q: With MCCPRSNFGYPFHVNLDMWG as the substance, how does the amyloid nucleation score read?
A: -0.186 ± 0.55

Q: Which amyloid nucleation score does the source give for FVYQCMCFNADLCFKFRLCS here?
A: 7.883 ± 0.065

Q: For VLDYSTHIEFGQRRVVGFAR, which amyloid nucleation score is on record?
A: -0.321 ± 1

Q: With VFLVCYTYLWTFKSCTYFMN as the substance, how does the amyloid nucleation score read?
A: -1.88 ± 0.78

Q: With SRRVFVKWGNWSCFVVVEDN as the substance, how does the amyloid nucleation score read?
A: 0.072 ± 0.16

Q: For GSCNRKRHDVAYHLKCGMVA, which amyloid nucleation score is on record?
A: 1.09 ± 0.14

Q: For YCFMVRFRYGPLREMTNCSK, which amyloid nucleation score is on record?
A: -0.34 ± 0.62

Q: Which amyloid nucleation score does the source give for FKSIDISAFSSSSHTGSYLG here?
A: 0.578 ± 0.81

Q: With RTSTYLCMAVNKGVFVSNSV as the substance, how does the amyloid nucleation score read?
A: -0.576 ± 0.64

Q: For RWCSVGNLVRSITR, which amyloid nucleation score is on record?
A: 0.464 ± 0.57

Q: For MDLMGCLYYPDT, which amyloid nucleation score is on record?
A: 1.05 ± 0.35

Q: For REVTNLYVVGGSDCTLIGGM, which amyloid nucleation score is on record?
A: 3.75 ± 0.097

Q: For CFRLD, which amyloid nucleation score is on record?
A: inactive

Q: For YYGCCMVLTEPVG, which amyloid nucleation score is on record?
A: 6.29 ± 0.072

Q: Which amyloid nucleation score does the source give for CRSSGFRFTLRKWCWNVNEC here?
A: -0.7 ± 0.76

Q: Which amyloid nucleation score does the source give for TEILILMIGLIAGLYCEIRF here?
A: -0.231 ± 0.79

Q: For WTWTYARDVHTTLN, which amyloid nucleation score is on record?
A: 1.13 ± 0.41

Q: Which amyloid nucleation score does the source give for LPQMNMGFLGSLNFEGMKRA here?
A: 1.47 ± 0.2

Q: With FHFKLRGWPGRGVTSMGS as the substance, how does the amyloid nucleation score read?
A: -0.873 ± 0.62

Q: Which amyloid nucleation score does the source give for RYWKFA here?
A: 0.744 ± 0.74

Q: For MSVPFLWFTYHFSRPVLSVT, which amyloid nucleation score is on record?
A: 0.389 ± 0.27

Q: With SLSGHDLNWRFI as the substance, how does the amyloid nucleation score read?
A: 0.32 ± 0.74

Q: Which amyloid nucleation score does the source give for FVSYED here?
A: -0.793 ± 1.1

Q: With HAKPDNLLFLTNGEPRTIIR as the substance, how does the amyloid nucleation score read?
A: -2.15 ± 1.1

Q: For GRGERCKGSKIGCSRKAKID, which amyloid nucleation score is on record?
A: 0.98 ± 0.3

Q: For LHIFSSWTRW, which amyloid nucleation score is on record?
A: -0.451 ± 0.76

Q: Which amyloid nucleation score does the source give for DVMSSPGVSFITTVAFDVC here?
A: 0.382 ± 0.8

Q: Which amyloid nucleation score does the source give for FHRRMFLCAVWLLRLTIVRQ here?
A: 0.492 ± 0.39

Q: For FCPVFST, which amyloid nucleation score is on record?
A: -0.127 ± 1

Q: With KGCVVFFRFSCNCSMICAWV as the substance, how does the amyloid nucleation score read?
A: -0.668 ± 0.48

Q: Which amyloid nucleation score does the source give for DYLVRGQEY here?
A: 0.357 ± 0.43

Q: With GMKCAAFSESVNHRLQFNGT as the substance, how does the amyloid nucleation score read?
A: -0.345 ± 0.33

Q: Which amyloid nucleation score does the source give for IGIMQMIYFVD here?
A: 5.79 ± 0.068

Q: For VALSSVFKEESCRVIRIMES, which amyloid nucleation score is on record?
A: -1.02 ± 0.32

Q: With VLIVFNNPCFMGWALVDVVL as the substance, how does the amyloid nucleation score read?
A: 8.194 ± 0.053

Q: Which amyloid nucleation score does the source give for RTLHSLWHNAT here?
A: 0.906 ± 0.35

Q: Which amyloid nucleation score does the source give for CRSAVRRILGFNLSRVFSWF here?
A: -0.417 ± 0.64

Q: For PRVVYNFLNWGIGFYFVVDD, which amyloid nucleation score is on record?
A: 7.161 ± 0.027

Q: Which amyloid nucleation score does the source give for CNLSFVGS here?
A: 0.287 ± 0.25

Q: For LYRFSNST, which amyloid nucleation score is on record?
A: -0.968 ± 0.29

Q: Which amyloid nucleation score does the source give for QACRSTGNSFVLNRYMKERT here?
A: 0.215 ± 0.24

Q: With LVFKAPRTITSPCCYGSNWS as the substance, how does the amyloid nucleation score read?
A: 0.504 ± 0.36

Q: Which amyloid nucleation score does the source give for VSNLTQVAEVRQSNGGVFCG here?
A: 0.189 ± 0.39

Q: With PPDNVSNWYVVKWAGRMMQK as the substance, how does the amyloid nucleation score read?
A: 4.13 ± 0.044

Q: With ATFFM as the substance, how does the amyloid nucleation score read?
A: -0.011 ± 1.1

Q: For FIDRMKMLWGLKSWDFQCHW, which amyloid nucleation score is on record?
A: 0.362 ± 0.45

Q: For HVLEVPPAYPTQTSGMNPNS, which amyloid nucleation score is on record?
A: -0.143 ± 0.76

Q: For GCWYIDIWL, which amyloid nucleation score is on record?
A: 1.73 ± 0.11

Q: For RWAFTSFGSCLDKCYKYDYC, which amyloid nucleation score is on record?
A: -0.913 ± 0.49

Q: With HFKWNYYSYSVWEWVFEQLH as the substance, how does the amyloid nucleation score read?
A: -0.36 ± 0.63

Q: For LVLLKGYKRSNNGKQCYAGL, which amyloid nucleation score is on record?
A: 0.365 ± 0.66

Q: For SRRETTYHVVMDTFPTFAIT, which amyloid nucleation score is on record?
A: 0.943 ± 0.52

Q: For MLSEADNLRRSYRHRIYEFI, which amyloid nucleation score is on record?
A: -0.874 ± 0.76

Q: For DKSFVSLSRFHSGRLEIRVM, which amyloid nucleation score is on record?
A: -0.886 ± 0.49

Q: With NGFCYFDGLSLSYSKLTGMM as the substance, how does the amyloid nucleation score read?
A: inactive

Q: With NMYFEVALFT as the substance, how does the amyloid nucleation score read?
A: -1.22 ± 0.64

Q: With SSGSRRLWSLRSRIAQRNMQ as the substance, how does the amyloid nucleation score read?
A: 2.83 ± 0.17

Q: With RPMWLSGAEKKWLSCWCNCM as the substance, how does the amyloid nucleation score read?
A: 6.013 ± 0.046

Q: Which amyloid nucleation score does the source give for VMNDLILSKAVLGFELRLWG here?
A: 4.23 ± 0.066

Q: Which amyloid nucleation score does the source give for VLCTYRGLDITL here?
A: 0.166 ± 0.21

Q: Which amyloid nucleation score does the source give for AINLSDKAARVPLFK here?
A: -0.093 ± 0.34

Q: Which amyloid nucleation score does the source give for MVAYFPMSPG here?
A: -0.076 ± 0.24

Q: With QMSLAGRG as the substance, how does the amyloid nucleation score read?
A: inactive

Q: For VILNYSRY, which amyloid nucleation score is on record?
A: 4.5 ± 0.078

Q: With RFICSAPAVPILIICWS as the substance, how does the amyloid nucleation score read?
A: -1.65 ± 0.76

Q: For FSSSYP, which amyloid nucleation score is on record?
A: inactive

Q: Which amyloid nucleation score does the source give for SNFQYSIKGQADRLPIVLVL here?
A: -0.373 ± 1

Q: With NLNPRCIACLQQPTFHMKMA as the substance, how does the amyloid nucleation score read?
A: -0.101 ± 0.32

Q: For NLRSLECLCMRCK, which amyloid nucleation score is on record?
A: -0.145 ± 0.79

Q: For NSSPTSFLLIMSLNCCICVN, which amyloid nucleation score is on record?
A: 8.228 ± 0.024

Q: For CNRAQLNVSPNLDDMRKFGV, which amyloid nucleation score is on record?
A: -0.506 ± 1

Q: With ERYIRF as the substance, how does the amyloid nucleation score read?
A: 0.187 ± 0.32

Q: For LMAKVRLRVGLGHWLDVWG, which amyloid nucleation score is on record?
A: 2.93 ± 0.12

Q: For IFKCRRVI, which amyloid nucleation score is on record?
A: 4.614 ± 0.041

Q: With GYLGMWVKTCCQWTGERSDM as the substance, how does the amyloid nucleation score read?
A: 4.66 ± 0.057

Q: With NYCRVDLHSYKCYVVCSMFM as the substance, how does the amyloid nucleation score read?
A: 4.76 ± 0.11

Q: For GALVR, which amyloid nucleation score is on record?
A: -1.08 ± 0.55
